B1: CPEB3 Ribozyme (parent)
chain: UAACAGGGGGCCACAGCAGAAGCGUUCACGUCGCAGCCCCUGUCAGAUUCUGGUGAAUCUGCGAAUUCUGCUGUAUAUCUC

The variants in the data set derive from B1. As to the kind of experiment: self-cleavage, relative activity (ratio to wild type); higher = more cleavage; in vitro, sequencing. The gist of the method: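 CPEB3 self-cleaving ribozyme mutant libraries were made by rounds of error-prone PCR, barcoded, and transcribed in vitro with T7 RNA polymerase for 5 hours at 37°C. Cleavage occurred during transcription and a 15 min DNase I step before EDTA stop. RNAs were reverse transcribed with template switching and Illumina-sequenced, with DNA sequencing mapping barcodes to variants. Relative activity is the variant's cleaved/total read fraction divided by wild type's (minimum 5 reads), averaged across three batches.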
For UAACAGGGGGCCACAGCGGAAGCGUUCACGUCGCAGCCCCUGUCAGAUUCUGGUGAAUCUGCGAAUUCUGCUGUAUAUCAC [A18G U80A], the self-cleavage stood at 0.9.
As for UAACAGGGGGCCACAGCAGAAGCGUUCACGUCGCAGCCCCUGUCAGAUUCUGGUGAAUCUGCUAAUACUGCUGUAUAUCUC [G63U U67A], the figure is 0.58.
The same measure for UAACAGGGGGCCACAGCAGAAGCGUUCACGUCGCAGCCCCUGCCAGAUUCUGGUGAAUCUGCGAAUUCUGCUGUAUAUUUC [U43C C79U]: 0.91.
As for UAACAGGGGGCCACAGCAGAAGUGUUCACGUCGCAGCCCCUGUCAGAUUCUGGUGAAUCUGCGAAUUCUGCUGUACAUCUC [C23U U76C], the figure is 0.4.
Regarding UAACAGGGGGCCACAGCAGAAGCGUGCACGUCGCAGCCCCUGUCAGAUUCUGGUGUAUCUGCGAAUUCUGCUGUAUAUCUC [U26G A56U], the self-cleavage was 0.1.
Turning to UAACAGGGGGCCACAGCAGAAGCGUUCUCGUCGCAGCCCCUGUCAGAUUCUGGAGAAUCUGCGAAUUCUGCUGUAUAUCUC [A28U U54A], the self-cleavage turned out to be 0.71.
For the variant AAACAGGGGGCCACAGCAGAAGCGUUCACGUCGCAGCCCCUGUCAGAUUCUGGUGAAUCUGCGAAUUCUGCAGUAUAUCUC [U1A U72A], the self-cleavage came to 0.55.
As to UAACAGGGGGCCACAGCAGAAGCGUUCAAGUCGCAGCCCCUGUCAGAUUCUGGUGAGUCUGCGAAUUCUGCUGUAUAUCUC [C29A A57G], the self-cleavage turned out to be 0.33.
The same measure for UAACAGGGGGCCACAGCAGAAGCGUUCACGUCGCAGCCCCUGUCAGAUUCUGGUGAGUCUGCGAAUUCUGUUGUAUAUCUC [A57G C71U]: 0.32; for UAACAGGGGGCCACAGCAGAAGCGUUCACGUCGCAGCCCCUGUCAGAUUCUGGAGAAUCUGCGAAUUCUGCUGUCUAUCUC [U54A A75C]: 1.19; for UAACAGGGGGCCACAGCUGAAGCGUUCACGUCGCAGCCCCUGUCAGAUUCUGGUGAAUCUGCGAAUUCUGCUGUAUAUAUC [A18U C79A]: 0.75.
For the variant UGACAGGGGGCCACAGCAGAAGCGUUCACGUCGCAGCCCCUGUCAGAUUCUGGUGAAUCUGCGAAUUCUGCUGUACAUCUC [A2G U76C], the self-cleavage turned out to be 0.73.
In the case of UAACAGGGGGCCACAGCAGGAGCGUUCACGUCGCAGCCCCUGUCAGAUUCUGGUGAAUUUGCGAAUUCUGCUGUAUAUCUC [A20G C59U], the self-cleavage was found to be 0.82.
As for UAACAGGGGGCCUCAGCAGAAGCGUUCAUGUCGCAGCCCCUGUCAGAUUCUGGUGAAUCUGCGAAUUCUGCUGUAUAUCUC [A13U C29U], the figure is 0.58; as for GAACAGGGGGCCACAGCAGAAGUGUUCACGUCGCAGCCCCUGUCAGAUUCUGGUGAAUCUGCGAAUUCUGCUGUAUAUCUC [U1G C23U], 0.49.
The same measure for UAACCGGGGGCCACAGCAGAAGCGUUCACGUCGCAGUCCCUGUCAGAUUCUGGUGAAUCUGCGAAUUCUGCUGUAUAUCUC [A5C C37U]: 0.76.
As to UAACAGGGGGCAACAGCAGAAGCGUUCACGUCGCAGCCCCUGUCAGAUUCAGGUGAAUCUGCGAAUUCUGCUGUAUAUCUC [C12A U51A], the self-cleavage amounted to 1.06.
Consider UAACAGGGGGCCACAGCAGAAGCGUACACGUCGCAGCCCCUGUCAGAUUCUGGUGAAUCUGCGAAUACUGCUGUAUAUCUC [U26A U67A], for which the self-cleavage stood at 0.38.
Consider UAACAGGGGGCCACAGCAGGAGCGUUCACGUCGCAGCCCCUUUCAGAUUCUGGUGAAUCUGCGAAUUCUGCUGUAUAUCUC [A20G G42U], for which the self-cleavage came to 0.22.
The same measure for UAACAGGGGUCCACAGCAGAAGCGUUCACGUCGCAGCCCCUGUCAGAUUCUGGCGAAUCUGCGAAUUCUGCUGUAUAUCUC [G10U U54C]: 0.34.
For UAACAGGGGGCCACAGCAGAAGCGUUCACGUCGCAGCCCCUGUCAGAUUCUGGUGAAUCUGCGUAUUCUGCUGUAAAUCUC [A64U U76A], the self-cleavage stood at 0.32.
On to UAACAGGGGGCCAAAGCAGAAGCGUUCACGUCGCAGCCCCUGUCAGAUUCUGGUGAAUCUGCGAGUUCUGCUGUAUAUCUC [C14A A65G], for which the self-cleavage stood at 0.78.
For the variant UAACGGGGGGCCACAGCAGAAGCGUUCACGUCGCAGCCCCUGUCAGAUUCUGGUGAAUCUGGGAAUUCUGCUGUAUAUCUC [A5G C62G], the self-cleavage came out at 0.14.
As for UAACAGGGGGCCACAGCAGAAGCGUUCACGUCGCAGCCACUGUCAGAUUCUGGUGAAUCUGCGAAUUCUGCAGUAUAUCUC [C39A U72A], the figure is 0.35.
As for UAACAGGGGGCCACAGCAGAAGCGUUCCCGUCGCAGCCCCUGUCAGAUACUGGUGAAUCUGCGAAUUCUGCUGUAUAUCUC [A28C U49A], the figure is 0.26.
The same measure for UAACAGGGGGCCACAGCAGAAGCGUUCACGUCGCAGCCCCCAUCAGAUUCUGGUGAAUCUGCGAAUUCUGCUGUAUAUCUC [U41C G42A]: 0.23.
For the variant UAACAGGGGGCCACAGCAGAAGCGUUCACGUCGCAGCCCCUGUCCGAUUCUGGUGGAUCUGCGAAUUCUGCUGUAUAUCUC [A45C A56G], the self-cleavage was 0.26.
The same measure for UAACAGGGGGCCACAGCAGAAGCGUUCACGUCGCAGCACCUGUCAGAUUCUGGUGAAUCUGCGAAUUCUGCUGUAUACCUC [C38A U78C]: 0.33; for UAACAGGGGGCCACAGCAGAAGCGUUCACGUCGCAGCCCCUGUCAGAUUUUGGUGGAUCUGCGAAUUCUGCUGUAUAUCUC [C50U A56G]: 0.85; for UAACAGGGGGCCACAGCAGAAGCGUUCACGUCGCAGCCCCUGUCAGAUUCUGGUGAAUCUCCGAAUUCUGCUGUAUACCUC [G61C U78C]: 0.33.
Turning to UAACAGGGGGCCACAGCAGAAGCGUUCACGUCGCAGCCCCUGUCAGAUUCUGCUGAAUCUGCGAAUCCUGCUGUAUAUCUC [G53C U67C], the self-cleavage was found to be 0.17.
The same measure for UAACAGGGGGCCACAGCAGAAGCGUUCCCGUCGCAGCCCCUGUCAGCUUCUGGUGAAUCUGCGAAUUCUGCUGUAUAUCUC [A28C A47C]: 0.18.
On to UAACAGGGGGCCACAGCAGAAGCGUUCACGUCGCAGCCCCUGUCAGAUUCUGGUGAAUCUGCGACUUCUGCUGUAUAUCCC [A65C U80C], for which the self-cleavage was found to be 0.53.
As for UAACAGGGGGCCACAGCAGAAGCCUUCACGUCGCAGCCCCUGUCAGAUUCUGGUGAAUCAGCGAAUUCUGCUGUAUAUCUC [G24C U60A], the figure is 0.45.

For the origin of these results see the RNAGym collection of RNA variant scans (doi:10.1093/nar/gkz1192).
